Measured values: PMC10223678

Target: recombinant EGF (rEGF) protein with SV5 and 6xHis tags (human)
Test: ELISA; titration ELISA: plates coated with rEGF at 5 µg/mL (BSA coating for negative controls, at the maximum tested nanobody concentration), blocked with 3% skimmed milk, biotinylated nanobodies serially diluted 1 h at RT, detected with streptavidin-HRP; KD estimated by the fitting function of ref. 37; triplicates

B1: recombinant anti-EGF nanobody D6-4, biotinylated (VHH)
VHH: QVQLVESGGGSVQAGGSLRLSCTASGTRRYKYNVFDLGWFRQAPGQEREAVAAISTGGGRTYYADSVKGRFTISRDNAKNTVTLQMNNLKPEDTAIYYCAARRTNNANFRYWGQGTQVTVS
  Kd: 370 nM

B2: recombinant anti-EGF nanobody A8-1, biotinylated (VHH)
VHH: QVQLVESGGGSVQAGGSLRLSCTASGNSNYQYPHFDLGWFRQAPGQEREAVAAISSGGGRTYYADSVKGRFTISRDNAKNTVTLQMNNLKPEDTAIYYCAAVGSRTRNYRYWGQGTQVTVS
  Kd: 240 nM
